We go through 62 substances from paper PMC8054141.

One experiment concerns the target Venus-PreIQ3-IQ-A1.3. Kind of experiment: FRET two-hybrid assay. To be noted: parent: est. 22; read off a plot.
The target in a further experiment is Cerulean-ICDI1.4. Kind of experiment: FRET two-hybrid assay. To be noted: read off a plot.

As to Cerulean-ICDI1.4 ACR[1917]AAA, the Ka in the experiment with Venus-PreIQ3-IQ-A1.3 came to 14 µM⁻¹.
The same measure, in the same setting: for Cerulean-ICDI1.4 ALA[1908]AAA the value was 38 µM⁻¹; for Cerulean-ICDI1.4 ASD[1929]AAA, 30 µM⁻¹.
With Cerulean-ICDI1.4 CVH[1962]AAA, the Ka with Venus-PreIQ3-IQ-A1.3 was 51 µM⁻¹.
Still for that read-out and setting: the value for Cerulean-ICDI1.4 DNA[1926]AAA was 7 µM⁻¹; that for Cerulean-ICDI1.4 EAV[1889]AAA was 37 µM⁻¹; that for Cerulean-ICDI1.4 EED[1953]AAA was 40 µM⁻¹.
On the same count and under the same terms, the value for Cerulean-ICDI1.4 EES[1944]AAA was 38 µM⁻¹; that for Cerulean-ICDI1.4 EGL[1895]AAA was 6 µM⁻¹.
In the case of Cerulean-ICDI1.4 EMA[1959]AAA, the Ka in the experiment with Venus-PreIQ3-IQ-A1.3 came out at 26 µM⁻¹.
On the same count and under the same terms, for Cerulean-ICDI1.4 GLF[1898]AAA the value was 3.5 µM⁻¹; for Cerulean-ICDI1.4 GTH[1871]AAA, 48 µM⁻¹; for Cerulean-ICDI1.4 HVP[1868]AAA, 42 µM⁻¹.
Consider Cerulean-ICDI1.4 ILS[1947]AAA, for which the Ka in the experiment with Venus-PreIQ3-IQ-A1.3 worked out at 37 µM⁻¹.
Take Cerulean-ICDI1.4 KRG[1880]AAA: the Ka with Venus-PreIQ3-IQ-A1.3 is 6.5 µM⁻¹.
Consider Cerulean-ICDI1.4 LGD[1956]AAA, for which the Ka in the experiment with Venus-PreIQ3-IQ-A1.3 came to 50 µM⁻¹.
The same measure, in the same setting: the value for Cerulean-ICDI1.4 QGT[1935]AAA was 56 µM⁻¹; that for Cerulean-ICDI1.4 RFD[1950]AAA was 51 µM⁻¹.
Take Cerulean-ICDI1.4 SAD[1883]AAA: the Ka with Venus-PreIQ3-IQ-A1.3 stood at 30 µM⁻¹.
Consider Cerulean-ICDI1.4 SDP[1874]AAA, for which, in the experiment with Venus-PreIQ3-IQ-A1.3, the Ka came to 31 µM⁻¹.
With Cerulean-ICDI1.4 SHG[1877]AAA, the Ka with Venus-PreIQ3-IQ-A1.3 worked out at 61 µM⁻¹.
Still for that read-out and setting: for Cerulean-ICDI1.4 SSL[1938]AAA the value was 46 µM⁻¹.
For the substance Venus-IQ-A1.3 AGL[1638]AAA, in the experiment with Cerulean-ICDI1.4 (parent: est. 26 µM^-1), the Ka was 7.5 µM⁻¹.
For Venus-IQ-A1.3 AIS[1653]AAA, the Ka with Cerulean-ICDI1.4 (parent: est. 26 µM^-1) came out at 9.5 µM⁻¹.
Take Venus-IQ-A1.3 AKN[1629]AAA: the Ka in the experiment with Cerulean-ICDI1.4 (parent: est. 26 µM^-1) was found to be 22 µM⁻¹.
Venus-IQ-A1.3 ALQ[1635]AAA: in the experiment with Cerulean-ICDI1.4 (parent: est. 26 µM^-1), the Ka turned out to be 8.5 µM⁻¹.
Same read-out and setting: the value for Venus-IQ-A1.3 GPE[1647]AAA was 44 µM⁻¹; that for Venus-IQ-A1.3 HDI[1644]AAA was 55 µM⁻¹; that for Venus-IQ-A1.3 IRR[1650]AAA was 8 µM⁻¹.
The same measure, in the same setting: the value for Venus-IQ-A1.3 KYP[1626]AAA was 25 µM⁻¹; that for Venus-IQ-A1.3 LVG[1623]AAA was 27 µM⁻¹.
As for Venus-IQ-A1.3 RTL[1641]AAA, in the experiment with Cerulean-ICDI1.4 (parent: est. 26 µM^-1), the Ka is 7 µM⁻¹.
Venus-IQ-A1.3 TTI[1632]AAA: the Ka in the experiment with Cerulean-ICDI1.4 (parent: est. 26 µM^-1) was determined as 54 µM⁻¹.
On to Venus-PreIQ3-IQ-A1.3 A[-4]T, for which the Ka in the experiment with Cerulean-ICDI1.4 (parent: est. 21) amounted to 9 µM⁻¹.
With Venus-PreIQ3-IQ-A1.3 A[-16]T, the Ka in the experiment with Cerulean-ICDI1.4 (parent: est. 21) is 18 µM⁻¹.
The same measure, in the same setting: for Venus-PreIQ3-IQ-A1.3 D[+2]A the value was 18 µM⁻¹; for Venus-PreIQ3-IQ-A1.3 D[-13]A, 28 µM⁻¹.
Turning to Venus-PreIQ3-IQ-A1.3 D[-14]A, in the experiment with Cerulean-ICDI1.4 (parent: est. 21), the Ka is 14 µM⁻¹.
For Venus-PreIQ3-IQ-A1.3 E[-12]A, in the experiment with Cerulean-ICDI1.4 (parent: est. 21), the Ka was 37 µM⁻¹.
As for Venus-PreIQ3-IQ-A1.3 F[+4]A, in the experiment with Cerulean-ICDI1.4 (parent: est. 21), the Ka was found to be 3.2 µM⁻¹.
On the same count and under the same terms, the value for Venus-PreIQ3-IQ-A1.3 F[+7]A was 15 µM⁻¹; that for Venus-PreIQ3-IQ-A1.3 F[-6]A was 12 µM⁻¹; that for Venus-PreIQ3-IQ-A1.3 G[-8]A was 32 µM⁻¹.
Still for that read-out and setting: the value for Venus-PreIQ3-IQ-A1.3 G[-15]A was 22 µM⁻¹; that for Venus-PreIQ3-IQ-A1.3 I[0]A was 24 µM⁻¹.
In the case of Venus-PreIQ3-IQ-A1.3 K[+6]A, the Ka with Cerulean-ICDI1.4 (parent: est. 21) was found to be 15 µM⁻¹.
For Venus-PreIQ3-IQ-A1.3 K[+8]A, in the experiment with Cerulean-ICDI1.4 (parent: est. 21), the Ka stood at 15 µM⁻¹.
Consider Venus-PreIQ3-IQ-A1.3 K[+9]A, for which, in the experiment with Cerulean-ICDI1.4 (parent: est. 21), the Ka was found to be 15 µM⁻¹.
Still for that read-out and setting: the value for Venus-PreIQ3-IQ-A1.3 K[+11]A was 15 µM⁻¹.
Regarding Venus-PreIQ3-IQ-A1.3 K[-7]A, the Ka with Cerulean-ICDI1.4 (parent: est. 21) was determined as 14 µM⁻¹.
On to Venus-PreIQ3-IQ-A1.3 L[-1]A, for which, in the experiment with Cerulean-ICDI1.4 (parent: est. 21), the Ka is 7 µM⁻¹.
Still for that read-out and setting: for Venus-PreIQ3-IQ-A1.3 P[-17]A the value was 16 µM⁻¹; for Venus-PreIQ3-IQ-A1.3 P[-18]A, 22 µM⁻¹.
The same measure, in the same setting: the value for Venus-PreIQ3-IQ-A1.3 Q[+1]A was 24 µM⁻¹; that for Venus-PreIQ3-IQ-A1.3 R[+5]A was 16 µM⁻¹; that for Venus-PreIQ3-IQ-A1.3 R[+10]A was 15 µM⁻¹.
As to Venus-PreIQ3-IQ-A1.3 T[-3]A, the Ka in the experiment with Cerulean-ICDI1.4 (parent: est. 21) was 34 µM⁻¹.
On to Venus-PreIQ3-IQ-A1.3 T[-10]A, for which, in the experiment with Cerulean-ICDI1.4 (parent: est. 21), the Ka turned out to be 37 µM⁻¹.
Venus-PreIQ3-IQ-A1.3 V[-9]A: the Ka with Cerulean-ICDI1.4 (parent: est. 21) is 11 µM⁻¹.
Venus-PreIQ3-IQ-A1.3 V[-11]A: in the experiment with Cerulean-ICDI1.4 (parent: est. 21), the Ka was 15 µM⁻¹.
Regarding Venus-PreIQ3-IQ-A1.3 Y[+3]A, the Ka with Cerulean-ICDI1.4 (parent: est. 21) amounted to 25 µM⁻¹.
The same measure, in the same setting: for Venus-PreIQ3-IQ-A1.3 Y[-5]A the value was 4.7 µM⁻¹.
